In paper PMC5509742, “Structure of polyhydroxyalkanoate (PHA) synthase PhaC from Chromobacterium sp. USM2, producing biodegradable plastics” (Scientific Reports, 2017):

B1: PHA synthase PhaC from Chromobacterium sp. USM2, full-length (enzyme)
chain: not shown
notes: two additional vector-derived residues (Gly-Pro) identified at the N-terminus after PreScission cleavage; Class I PHA synthase PhaC, Chromobacterium sp; USM2; full-length gene of 1704 nucleotides, calc; 63.4 kDa; Cloned into the His-fusion vector pET47b(+); the His-tag was removed with PreScission protease; also called PhaCCs; full-length PhaCCs; source: E. coli Rosetta 2 (DE3), purified (Ni-NTA, …)
B2: catalytic domain of PhaC from Chromobacterium sp. USM2 (residues 175-567) (domain or fragment)
chain: not shown
notes: two additional vector-derived residues (Gly-Pro) identified at the N-terminus after PreScission cleavage; Class I PHA synthase PhaC, Chromobacterium sp; USM2, C-terminal catalytic (CAT) domain, residues 175-567 (1179 nucleotides, calc. 43.8 kDa); Cloned into the His-fusion vector pET47b(+); the His-tag was removed with PreScission protease; also called PhaCCs-CAT; mol A; source: E. coli Rosetta 2 …

Assays:
[1] = biological target: the molecule itself; test: AUC; sedimentation velocity, 20 °C, 20,000 rpm, 5 µM full-length PhaCCs with 50 µM DL-3HB-CoA (10-fold molar ratio), 10 mM Tris-HCl (pH 8.0), 100 mM NaCl, 3 mM β-ME
[2] = biological target: the molecule itself; test: AUC; sedimentation velocity, 20 °C, 20,000 rpm, 5 µM full-length PhaCCs without substrate, 10 mM Tris-HCl (pH 8.0), 100 mM NaCl, 3 mM β-ME; monomer to dimer
[3] = biological target: the molecule itself; test: AUC; sedimentation velocity, 20 °C, 20 µM PhaCCs-CAT without DL-3HB-CoA, 10 mM Tris-HCl (pH 8.0), 100 mM NaCl, 3 mM β-ME; monomer to dimer

Protein | stoichiometry N [1] | stoichiometry N [2] | stoichiometry N [3]
B1 | ~4 | 2 | 
B2 |  |  | 2
